We go through two substances from PMC3660260.

Test [1] has as its target HCV envelope glycoprotein E2 (in lysate of HCV-infected Huh7.5 cells) (hepatitis C virus (strain not stated)) (UniProt Q99IB8).
Test [2] has the same target. The source holds these as a separate data set.

Chain of UniProt Q99IB8 (Q99IB8 384-750): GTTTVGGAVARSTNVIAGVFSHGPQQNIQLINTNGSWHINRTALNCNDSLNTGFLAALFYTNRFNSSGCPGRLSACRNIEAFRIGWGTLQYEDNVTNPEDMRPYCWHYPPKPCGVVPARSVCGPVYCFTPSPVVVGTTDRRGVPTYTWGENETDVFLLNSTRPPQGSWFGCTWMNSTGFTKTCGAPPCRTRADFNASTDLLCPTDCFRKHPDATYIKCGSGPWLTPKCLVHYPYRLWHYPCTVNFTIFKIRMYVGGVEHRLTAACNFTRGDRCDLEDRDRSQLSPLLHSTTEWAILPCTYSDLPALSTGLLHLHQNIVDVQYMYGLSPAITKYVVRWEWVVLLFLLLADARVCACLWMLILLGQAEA

For “griffithsin (from UniProt P84801 1-121) (natural protein)”, in test [1], the EC50 for inhibition of HCV JFH-1 (genotype 2a) in the HCVcc full-replication assay in Huh7.5.1 cells (HCV core protein in supernatant) turned out to be 0.4 nM. In test [2], this substance registered an EC50 for inhibition of replication of JFH-1 (genotype 2a) HCVcc in Huh7.5.1 cells of 0.3 nM, an EC50 for inhibition of replication of the J6/JFH-1 HCVcc chimera (structural genes of genotype 2a J6) in Huh7.5.1 cells of 14 nM and an EC50 for inhibition of replication of the TH/JFH-1 HCVcc chimera (structural genes of genotype 1b TH) in Huh7.5.1 cells of 2.2 nM.

The substance “scytovirin (from UniProt P86041 1-95) (natural protein)” showed an EC50 for inhibition of HCV JFH-1 (genotype 2a) in the HCVcc full-replication assay in Huh7.5.1 cells (HCV core protein in supernatant) in test [1] of 16.9 nM. For the same substance, in test [2], the EC50 for inhibition of replication of JFH-1 (genotype 2a) HCVcc in Huh7.5.1 cells stood at 3.2 nM, the EC50 for inhibition of replication of the J6/JFH-1 HCVcc chimera (structural genes of genotype 2a J6) in Huh7.5.1 cells came to 50.8 nM and the EC50 for inhibition of replication of the TH/JFH-1 HCVcc chimera (structural genes of genotype 1b TH) in Huh7.5.1 cells stood at 57.5 nM.
